Columns and labels:
Assay in all cases: cell-based or functional assay
[1] = target: HIV-1 Env of pseudovirus 246F C1G (HIV-1)
[2] = target: HIV-1 Env of pseudovirus CNE8 (HIV-1)
[3] = target: HIV-1 Env of pseudovirus RHPA4259.7 (HIV-1)
[4] = target: HIV-1 Env of pseudovirus ZM53M.PB12 (HIV-1)
[5] = target: HIV-1 Env of pseudovirus Ce1172_H1 (HIV-1)
[6] = target: HIV-1 Env of pseudovirus Ce2060_G9 (HIV-1)
[7] = target: HIV-1 Env of pseudovirus CNE58 (HIV-1)
[8] = target: HIV-1 Env of pseudovirus TRJO4551.58 (HIV-1)
[9] = target: HIV-1 Env of pseudovirus HIV-16055-2.3 (HIV-1)
[10] = target: HIV-1 Env of pseudovirus CNE17 (HIV-1)
[11] = target: HIV-1 Env of pseudovirus 7030102001E5(Rev-) (HIV-1)
[12] = target: HIV-1 Env of pseudovirus TRO.11 (HIV-1)
[13] = target: HIV-1 Env of pseudovirus Du422.1 (HIV-1)
[14] = target: HIV-1 Env of pseudovirus T250-4 (HIV-1)
[15] = target: HIV-1 Env of pseudovirus ZM109F.PB4 (HIV-1)
[16] = target: HIV-1 Env of pseudovirus 0260.v5.c36 (HIV-1)
[17] = target: HIV-1 Env of pseudovirus ZM249M.PL1 (HIV-1)
[18] = target: HIV-1 Env of pseudovirus CNE53 (HIV-1)
[19] = target: HIV-1 Env of pseudovirus 1056_10_TA11_1826 (HIV-1)
[20] = target: HIV-1 Env of pseudovirus CNE52 (HIV-1)
[21] = target: HIV-1 Env of pseudovirus Ce704809221_1B3 (HIV-1)
[22] = target: HIV-1 Env of pseudovirus CAP45.2.00.G3 (HIV-1)
[23] = target: HIV-1 Env of pseudovirus 3365.v2.c2 (HIV-1)
[24] = target: HIV-1 Env of pseudovirus Du172.17 (HIV-1)
[25] = target: HIV-1 Env of pseudovirus 1394C9G1(Rev-) (HIV-1)
[26] = target: HIV-1 Env of pseudovirus 6244_13_B5_4576 (HIV-1)
[27] = target: HIV-1 Env of pseudovirus 1012_11_TC21_3257 (HIV-1)
[28] = target: HIV-1 Env of pseudovirus 6240_08_TA5_4622 (HIV-1)
[29] = target: HIV-1 Env of pseudovirus Q461.e2 (HIV-1)
[30] = target: HIV-1 Env of pseudovirus 3415.v1.c1 (HIV-1)
[31] = target: HIV-1 Env of pseudovirus ZM214M.PL15 (HIV-1)
[32] = target: HIV-1 Env of pseudovirus CNE30 (HIV-1)
[33] = target: HIV-1 Env of pseudovirus Ce2010_F5 (HIV-1)
[34] = target: HIV-1 Env of pseudovirus Ce0393_C3 (HIV-1)
[35] = target: HIV-1 Env of pseudovirus C2101.c01 (HIV-1)
[36] = target: HIV-1 Env of pseudovirus Q842.d12 (HIV-1)
[37] = target: HIV-1 Env of pseudovirus AC10.0.29 (HIV-1)

Substance: N49P7 (antibody)
- IC50 [1]: 0.094 µg/mL
- IC80 [1]: 0.255 µg/mL
- MPI [1]: 100
- IC50 [2]: 0.037 µg/mL
- IC80 [2]: 0.125 µg/mL
- MPI [2]: 100
- IC50 [3]: 0.083 µg/mL
- IC80 [3]: 0.246 µg/mL
- MPI [3]: 100
- IC50 [4]: 0.251 µg/mL
- IC80 [4]: 0.8 µg/mL
- MPI [4]: 100
- IC50 [5]: 8.5 µg/mL
- IC80 [5]: 37.5 µg/mL
- MPI [5]: 92
- IC50 [6]: 0.661 µg/mL
- IC80 [6]: 2.55 µg/mL
- MPI [6]: 100
- IC50 [7]: 0.029 µg/mL
- IC80 [7]: 0.067 µg/mL
- MPI [7]: 100
- IC50 [8]: 0.104 µg/mL
- IC80 [8]: 0.351 µg/mL
- MPI [8]: 100
- IC50 [9]: 0.057 µg/mL
- IC80 [9]: 0.28 µg/mL
- MPI [9]: 100
- IC50 [10]: 0.126 µg/mL
- IC80 [10]: 0.46 µg/mL
- MPI [10]: 100
- IC50 [11]: 0.184 µg/mL
- IC80 [11]: 0.832 µg/mL
- MPI [11]: 100
- IC50 [12]: 0.044 µg/mL
- IC80 [12]: 0.16 µg/mL
- MPI [12]: 100
- IC50 [13]: 4.5 µg/mL
- IC80 [13]: 19.5 µg/mL
- MPI [13]: 93
- IC50 [14]: 2.07 µg/mL
- IC80 [14]: 21.4 µg/mL
- MPI [14]: 91
- IC50 [15]: 0.034 µg/mL
- IC80 [15]: 0.153 µg/mL
- MPI [15]: 100
- IC50 [16]: 0.354 µg/mL
- IC80 [16]: 0.884 µg/mL
- MPI [16]: 100
- IC50 [17]: 0.039 µg/mL
- IC80 [17]: 0.134 µg/mL
- MPI [17]: 100
- IC50 [18]: 0.035 µg/mL
- IC80 [18]: 0.124 µg/mL
- MPI [18]: 100
- IC50 [19]: 0.141 µg/mL
- IC80 [19]: 0.468 µg/mL
- MPI [19]: 100
- IC50 [20]: 0.008 µg/mL
- IC80 [20]: 0.023 µg/mL
- MPI [20]: 100
- IC50 [21]: 0.141 µg/mL
- IC80 [21]: 0.932 µg/mL
- MPI [21]: 100
- IC50 [22]: 0.06 µg/mL
- IC80 [22]: 0.29 µg/mL
- MPI [22]: 100
- IC50 [23]: 0.07 µg/mL
- IC80 [23]: 0.186 µg/mL
- MPI [23]: 100
- IC50 [24]: 0.102 µg/mL
- IC80 [24]: 0.668 µg/mL
- MPI [24]: 100
- IC50 [25]: 3.84 µg/mL
- IC80 [25]: 21.1 µg/mL
- MPI [25]: 94
- IC50 [26]: 0.111 µg/mL
- IC80 [26]: 0.386 µg/mL
- MPI [26]: 100
- IC50 [27]: 0.046 µg/mL
- IC80 [27]: 0.125 µg/mL
- MPI [27]: 100
- IC50 [28]: 0.457 µg/mL
- IC80 [28]: 1.73 µg/mL
- MPI [28]: 100
- IC50 [29]: 0.261 µg/mL
- IC80 [29]: 0.922 µg/mL
- MPI [29]: 100
- IC50 [30]: 0.16 µg/mL
- IC80 [30]: 0.55 µg/mL
- MPI [30]: 100
- IC50 [31]: 0.213 µg/mL
- IC80 [31]: 0.953 µg/mL
- MPI [31]: 100
- IC50 [32]: 0.18 µg/mL
- IC80 [32]: 0.609 µg/mL
- MPI [32]: 100
- IC50 [33]: 0.13 µg/mL
- IC80 [33]: 0.547 µg/mL
- MPI [33]: 100
- IC50 [34]: 0.195 µg/mL
- IC80 [34]: 0.802 µg/mL
- MPI [34]: 100
- IC50 [35]: 0.06 µg/mL
- IC80 [35]: 0.34 µg/mL
- MPI [35]: 100
- IC50 [36]: 0.021 µg/mL
- IC80 [36]: 0.06 µg/mL
- MPI [36]: 100
- IC50 [37]: 5.03 µg/mL
- IC80 [37]: 36.7 µg/mL
- MPI [37]: 89

— patent publication US20240117018A1
